Source: FireProtDB (doi:10.1371/journal.ppat.1004158)

B1: Heterokaryon incompatibility protein s, Q03689 (parent)
chain: MSEPFGIVAGALNVAGLFNNCVDCFEYVQLGRPFGRDYERCQLRLDIAKARLSRWGEAVKINDDPRFHSDAPTDKSVQLAKSIVEEILLLFESAQKTSKRYELVADQQDLVVFEDKDMKPIGRALHRRLNDLVSRRQKQTSLAKKTAWALYDGKSLEKIVDQVARFVDELEKAFPIEAVCHKLAEIEIEEVEDEASLTILKDAAGGIDAAMSDAAAQKIDAIVGRNSAKDIRTEERARVQLGNVVTAAALHGGIRISDQTTNSVETVVGKGESRVLIGNEYGGKGFWDN

Variants of: B1
Settings: Podospora anserina; pH 7.5; 25 °C; GdnHCl; optical density; structure 2KJ3; whole UniProt chain shown

Row | Variant | ddG of mutation (higher = less stable) | unfolding free energy
1 | K229A | -6.28 kJ/mol | 18.4 kJ/mol
2 | G278A | 3.35 kJ/mol | 10.5 kJ/mol
3 | E272A | -7.95 kJ/mol | 20.1 kJ/mol
4 | V264A | -4.18 kJ/mol | 16.7 kJ/mol
5 | D288A | -5.02 kJ/mol | 17.2 kJ/mol
6 | V267A | -0.837 kJ/mol | 12.1 kJ/mol
7 | L241A | -4.18 kJ/mol | 16.3 kJ/mol
8 | S273A | -5.86 kJ/mol | 18 kJ/mol
9 | V239A | -4.18 kJ/mol | 16.3 kJ/mol
